# Read-outs that look alike come from different tables or passages of the source.
# Experiments:
# [1] = biological target: T1, Bcl-2 (BCL-2 sequence as tested in Example 5) (Homo sapiens (Human), UniProt P10415 1-207); experiment: SPR, Biacore 8K; Bcl-2 immobilized, Des3 variant injected in serial dilutions
# T1 construct: It was immobilized in SPR
# Method: (§1) Affinity (nM) values were calculated by Surface plasmon resonance (SPR) data on a Biacore 8K device.
# [2] = biological target: T2, Bcl-XL (B-cell lymphoma-extra-large), wildtype sequence as tested (human, UniProt Q07817 1-209); experiment: SPR, LD3:Bcl-XL binding interaction, sensorgrams with fitted curves
# T2 construct: It is shorter than full-length Bcl-xL: E96 of the wildtype numbering stands at position 56; Bcl-XL was immobilized in SPR; also called Protein B
# T2 sequence (Q07817 other isoform, or with tags, fused parts or gaps limits assumed): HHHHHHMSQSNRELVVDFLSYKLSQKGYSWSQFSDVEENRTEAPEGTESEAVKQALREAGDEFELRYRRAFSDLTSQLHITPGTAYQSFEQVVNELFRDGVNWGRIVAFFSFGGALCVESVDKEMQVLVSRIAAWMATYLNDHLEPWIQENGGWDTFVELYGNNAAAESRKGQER
# [3] = biological target: T2, Bcl-XL (B-cell lymphoma-extra-large), …; experiment: SPR, Biacore 8K; Bcl-xL immobilized, Des3 variant injected in serial dilutions
# Method: as §1
# [4] = biological target: T2, Bcl-XL (B-cell lymphoma-extra-large), …
# [5] = biological target: T1, Bcl-2 (BCL-2 sequence as tested in …); experiment: not stated here (heading in the sequence table); target Bcl-2 (first of the two values, 'respectively')
# [6] = biological target: T2, Bcl-XL (B-cell lymphoma-extra-large), …; experiment: method not stated for this value (Example 1); Example 1, binder named 1LE4A; approximate value, method not stated
# T1 sequence (P10415 1-207 limits assumed): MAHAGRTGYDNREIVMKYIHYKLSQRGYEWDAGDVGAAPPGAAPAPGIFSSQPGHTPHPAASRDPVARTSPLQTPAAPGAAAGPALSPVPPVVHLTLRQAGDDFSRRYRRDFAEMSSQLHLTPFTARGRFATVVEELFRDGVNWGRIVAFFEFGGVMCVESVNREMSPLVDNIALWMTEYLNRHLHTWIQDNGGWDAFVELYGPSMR
Binder,Kd [1] [pM],Kd [2] [pM],Kd [3] [pM],Kd [4] [pM],Kd [5] [pM],Kd [6] [pM]
"LD3 (lead design 3: Bcl-XL binder designed on human apolipoprotein E4, PDB ID 1LE4 chain A) (designed binder, No single sentence states these identities; also called Des3; DES3) HHHHHHQRWELALGRFLEYLSWVSTLSEQVQEELLSSQVTQELRALMDETMKELKAYKSELEEQLTPVAEETRARLSKELQAAQARLGADMEDVRGRLVQYRGEVQAMLGQSTEELRVRLASHLIALQLRLIGDAFDLQKRLAVYQAGA",800,~4,4,4,800,~400
"Des3a (slightly weaker affinity binder, GLU124ALA) (designed binder) QRWELALGRFLAYLSWVSTLSEQVQEELLSSQVTQELRALMDETMKELKAYKSELEEQLTPVAEETRARLSKELQAAQARLGADMEDVRGRLVQYRGEVQAMLGQSTEELRVRLASHLIALQLRLIGDAFDLQKRLAVYQAGA",16800,,,,,
"Des3b (medium affinity binder, LEU235ALA) (designed binder) QRWELALGRFLEYLSWVSTLSEQVQEELLSSQVTQELRALMDETMKELKAYKSELEEQLTPVAEETRARLSKELQAAQARLGADMEDVRGRLVQYRGEVQAMLGQSTEELRVRLASHLIALQARLIGDAFDLQKRLAVYQAGA",64100,,,,,
"Des3c (weakest affinity Des3 binder, ASP240ALA) (designed binder) QRWELALGRFLEYLSWVSTLSEQVQEELLSSQVTQELRALMDETMKELKAYKSELEEQLTPVAEETRARLSKELQAAQARLGADMEDVRGRLVQYRGEVQAMLGQSTEELRVRLASHLIALQLRLIGAAFDLQKRLAVYQAGA",147000,,,,,
